{"source": "patent US5977435A", "about": "“Plant phosphatases” (Performance Plants, Inc., priority 1997, dated 1999)", "molecules": {"B1": {"name": "potato phosphatase (Solanum tuberosum) (protein)", "chain": "TQFPSVDIPLENEVLSVPNGYNAPQQVHITQGDYDGEAVIISWVTADEPGSSEVRYGLSEGKYDVTVEGTLNNYTFYKYESGYIHQCLITGLQYDTKYYYEIGKGDSARKFWFETPPKVDPDASYKFGIIGDLGQTYNSLSTLQHYMASGAKSVLFVGDLSYADRYQYNDVGVRWDTFGRLVEQSTAYQPWIWSAGNHEIEYFPSMGEVVPFRSFLSRYPTPYRASKSSNPLWYAIRRASAHIIVLSNYSPFGKYTPQWHWLKQEFKKVNREKTPWLIVLMHVPIYNSNAAHFMEGESMRSAYERWFVKYKVDVIFAGHVHAYERSYRISNIHYNVSGGDAYPVPDKAAPIYITVGDGGNSEGLTSRFRDPQPEYSAFREASYGHAILEIKNRTHAYYSWNRNDDGNAITTDSFTLHNQHW"}, "B2": {"name": "PTAP: potato tuber acid phosphatase purified from Solanum tuberosum tubers; 57 and 55 kD subunits (protein)", "chain": "B1 chain with Q189G"}}, "key": {"potato phosphatase [1]": {"target": "T1, potato phosphatase (Solanum tuberosum, UniProt Q6J5M8)", "T1 sequence (Q6J5M8 with tags, fused parts or gaps V118I/E238V/S277N/V282G/E319A/A394T/S415A/T416I/D418E/I426Y/H428S/N437A)": "B1 chain", "experiment": "Phosphatase assay B, substrate specificity", "conditions": "purified potato phosphatase, assay B, pH 5.8, 25° C", "description": "Phosphatase activity was determined using assay B and a wide range of compounds, tested at a total concentration of 5 mM unless otherwise specified.\n(§1) Phosphatase (0.05 units) was incubated in 1.5 mL cuvettes with 0.9 mL of 50 mM MES-NaOH (pH 5.8) containing 4 mM MgCl2 and an alternative substrate (5 mM unless otherwise indicated) for 6 min at 25° C. Reactions were terminated by the sequential addition of 0.1 mL reagent A (3 M H2 SO4 containing 20 mM ammonium molybdate) and […] of 1% (v/v) Triton X-100. Samples were incubated at 25° C. for 20 min and the A660 was determined. To calculate activities, a standard curve over the range of […] Pi was constructed for each set of assays. Assays were performed in triplicate and controls were run for background amounts of Pi present at each substrate concentration by adding reagent A before the enzyme."}, "[2]": {"target": "minor 28-kD potato tuber phosphatase isoform", "conditions": "cited from earlier work"}, "[3]": {"target": "egg yolk storage phosphoprotein, phosvitin (Gallus gallus (Chicken)) (UniProt P02845)"}, "[4]": {"target": "potato tuber phosphatase (PTAP) (potato (Solanum tuberosum L. cv. Chiefton))"}, "[5]": {"system": "P-Tyr phosphatase from Escherichia coli", "conditions": "E. coli P-Tyr phosphatase; cited from earlier work"}, "[6]": {"substrate": "C=C(OP(=O)(O)O)C(=O)O", "experiment": "purified protein, by the assay type", "conditions": "other: apparent Km, purified potato phosphatase, assay B; pH 5.8; 25.0 °C"}, "[7]": {"substrate": "NC(COP(=O)(O)O)C(=O)O", "experiment": "purified protein, by the assay type", "conditions": "other: apparent Km, purified potato phosphatase, assay B; pH 5.8; 25.0 °C"}, "[8]": {"substrate": "N[C@@H](Cc1ccc(OP(=O)(O)O)cc1)C(=O)O", "experiment": "purified protein, by the assay type", "conditions": "other: apparent Km, purified potato phosphatase, assay B; pH 5.8; 25.0 °C", "procedure": "(§3) Phosphatase (0.05 units) was incubated in 1.5 mL cuvettes with 0.9 mL of 50 mM MES-NaOH (pH 5.8) containing 4 mM MgCl2 and an alternative substrate (5 mM unless otherwise indicated) for 6 min at 25° C. Reactions were terminated by the sequential addition of 0.1 mL reagent A (3 M H2 SO4 containing 20 mM ammonium molybdate) and 10 ml of 1% (v/v) Triton X-100. Samples were incubated at 25° C. for 20 min and the A660 was determined. To calculate activities, a standard curve over the range of 0.01 to 1.0 mmol Pi was constructed for each set of assays. Assays were performed in triplicate and controls were run for background amounts of Pi present at each substrate concentration by adding reagent A before the enzyme. Hydrolysis was proportional to enzyme concentrations between 0.005 to 0.1 units/mL and remained linear with time for at least 15 min.\n(§4) All kinetic parameters are the means of duplicate determinations performed on two separate preparations of the purified enzyme, and are reproducible to within ±10% SE."}, "[9]": {"substrate": "Nc1ncnc2c1ncn2[C@@H]1O[C@H](COP(=O)(O)OP(=O)(O)OP(=O)(O)O)[C@@H](O)[C@H]1O", "experiment": "purified protein, by the assay type", "conditions": "other: apparent Km, purified potato phosphatase, assay B; pH 5.8; 25.0 °C", "procedure": "as §3, §4"}, "[10]": {"substrate": "O=[N+]([O-])c1ccc(OP(=O)(O)O)cc1", "experiment": "purified protein, by the assay type", "conditions": "other: apparent Km, purified potato phosphatase, assay B; pH 5.8; 25.0 °C"}, "[11]": {"experiment": "Heat-stability of the phosphatase", "type": "physicochemical", "description": "The phosphatase was relatively heat-stable, losing 0, 52, and 90% of its original activity when incubated for 4 min at 65, 70 and 75° C., respectively."}, "[12]": {"system": "potato tuber phosphotyrosyl proteins", "experiment": "Dephosphorylation of potato tuber phosphotyrosyl proteins by potato tuber phosphatase", "type": "biochemical, Solanum tuberosum", "conditions": "+ 30 units/mL phosphatase", "description": "A desalted potato tuber extract was incubated at 25° C. in the absence (-) and presence (+) of 30 units/mL purified potato tuber phosphatase. Aliquots were removed at 2 and 19 h and analyzed by immunoblotting using anti-(P-Tyr) IgG (Kamps and Sefton, 1988). The relative P-Tyr content of the 7 antigenic polypeptides was estimated by laser densitometric quantification of the immunoblots as described in the examples. Unless otherwise noted, all values represent the means±SE of triplicate determinations. ^a, the mean of duplicate determinations.\nElectroblotting was performed by the method of Moorhead and Plaxton (1990), with the addition of […] o-vanadate to the transfer buffer when maintenance of phosphotyrosyl residues was desired. All immunoblots to be probed with the anti-(black mustard PEP-specific phosphatase) IgG (Duff et al, 1991a) were first pre-treated with sodium m-periodate according to Laine (1988) so as to oxidize antigenic oligosaccharide chains of endogenous tuber glycoproteins. Immunological detection of phosphotyrosylated tuber proteins using anti-(P-Tyr) IgG (Kamps and Sefton, 1988) was performed as referenced above except that the blocking buffer contained 5% (w/v) bovine serum albumin (fraction V) and 1% (w/v) ovalbumin instead of 3% (w/v) defatted milk powder.\nAntigenic polypeptides were visualized using an alkaline-phosphatase-taggedsecondary antibody (Moorhead and Plaxton, 1990). Immunological specificities were confirmed by performing immunoblots in which rabbit preimmune serum was substituted for the affinity-purified IgGs. An LKB Ultroscan XL Enhanced Laser Densitometer was used to scan indicated immunoblots. Densitometric data were analysed using the LKB Gelscan XL software (version 2.1). Immunoreactive polypeptides were quantified in terms of their relative absorbance at 633 nm wavelength (A633).\nPeeled and diced potato tuber tissue (5 g) was homogenized with a Polytron in 1 volume of 100 mM MES-NaOH (pH 5.8) containing 2 mM PMSF, 2 mM DTT, and 1 mM EDTA. The homogenate was centrifuged for 10 min at 13,000 g in an Eppendorf microfuge, and a 3-mL aliquot of the supernatant fluid was passed at 4° C. through a BioRad Econo-Pac 10DG desalting column that had been pre-equilibrated in homogenization buffer lacking PMSF. Aliquots (0.1 mL) of the desalted crude extract were incubated at 25° C. with and without 3 units of the purified potato phosphatase. Samples were removed at 0, 2 and 19 h and analyzed by immunoblotting using the anti-(P-Tyr) IgG as described supra. Laser densitometric scanning and immunoquantification of the blots was performed as described supra."}, "potato phosphatase [13]": {"target": "T1, potato phosphatase", "experiment": "Specific activity of purified potato tuber phosphatase", "type": "biochemical", "parameters": "mature chain from Thr30, C-terminus not determined", "description": "As an initial step towards the isolation of plant phosphatase genes, the predominant phosphatase from potato tuber was purified to a final P-Tyr-hydrolyzing specific activity of 1917 units/mg (Gellatly et al, 1994). Only a single peak of activity was recovered following chromatography on columns of S-Sepharose, phosphocellulose and Phenyl Superose (Gellatly et al, 1994). One unit is defined as the μmoles of Pi produced per min at 25° C. The enzyme was purified 2289-fold to a final PEP-hydrolyzing specific activity of 618 units/mg and an overall recovery of 31% (Gellatly et al, 1994). With P-Tyr as substrate the final specific activity was increased to approximately 1900 units/mg (Table 1). This final specific activity was higher than any reported for a purified plant phosphatase (Duff et al, 1994).\n(§2) Assays were initiated by the addition of enzyme preparation. One unit of phosphatase activity is defined as the quantity of enzyme that would catalyze the hydrolysis of 1 […] of substrate/min at 25° C.\nas §1, with “enzyme. Hydrolysis was proportional to enzyme concentrations between 0.005 to 0.1 units/mL and remained linear with time for at least 15 min.” for “enzyme.”\nPotato tuber phosphatase was purified by the method of Gellatly et al. (1994)."}, "potato phosphatase [14]": {"target": "T1, potato phosphatase", "experiment": "Effect of pH on phosphatase activity (assay A with PEP)", "type": "biochemical", "parameters": "mature chain from Thr30, C-terminus not determined", "conditions": "pH/activity profile", "description": "Unless otherwise stated all kinetic studies of the potato phosphatase were performed with PEP using assay A (infra).\nAll subsequent kinetic studies were carried out at pH 5.8.\nas §2"}}, "note": "Residue numbers refer to the chain shown, from its start. Values joined by “and” are separate entries in the source; they are usually repeats but may differ in a detail not shown here. Equal entries are not always repeated.", "data": [{"molecule": "NC(COP(=O)(O)O)C(=O)O", "note": "(stereo not drawn) [P-Ser]", "values": [{"measurement": "Vmax", "setting": "potato phosphatase [1]", "value": 389, "unit": "units/mg"}, {"measurement": "dephosphorylation by the minor 28-kD isoform", "setting": "[2]", "value": "inability to catalyze dephosphorylation"}]}, {"molecule": "potato tuber phosphatase (PTAP) (enzyme)", "values": [{"measurement": "phosphoprotein phosphatase activity", "setting": "[3]", "value": 220, "unit": "units/mg"}]}, {"molecule": "egg yolk storage phosphoprotein, phosvitin (from UniProt P02845)", "values": [{"measurement": "Relative Activity (%) of potato phosphatase with 0.25 mM PEP", "setting": "[4]", "value": 19, "unit": "%"}]}, {"molecule": "N[C@@H](Cc1ccc(OP(=O)(O)O)cc1)C(=O)O", "note": "[P-Tyr, o-phospho-L-tyrosine]", "values": [{"measurement": "Km", "setting": "[5]", "value": "> 6000", "unit": "µM"}]}, {"molecule": "B1", "values": [{"measurement": "Km", "setting": "[6]", "value": 1520, "unit": "µM"}, {"measurement": "Km", "setting": "[7]", "value": 620, "unit": "µM"}, {"measurement": "Km", "setting": "[8]", "value": 990, "unit": "µM"}, {"measurement": "Vmax", "setting": "[8]", "value": 1917, "unit": "units/mg"}, {"measurement": "Km", "setting": "[9]", "value": 2160, "unit": "µM"}, {"measurement": "Vmax", "setting": "[9]", "value": 368, "unit": "units/mg"}, {"measurement": "Km", "setting": "[10]", "value": 1100, "unit": "µM"}]}, {"molecule": "B2", "values": [{"measurement": "loss of original activity", "setting": "[11]; incubated 4 min at 65° C", "value": 0, "unit": "%"}, {"measurement": "loss of original activity", "setting": "[11]; incubated 4 min at 70° C", "value": 52, "unit": "%"}, {"measurement": "loss of original activity", "setting": "[11]; incubated 4 min at 75° C", "value": 90, "unit": "%"}, {"measurement": "Relative phosphotyrosyl content after incubation at 25° C", "setting": "[12]; 20 kD polypeptide, 2h", "value": "66 ± 5", "unit": "% initial value"}, {"measurement": "Relative phosphotyrosyl content after incubation at 25° C", "setting": "[12]; 20 kD polypeptide, 19h", "value": "12 ± 3", "unit": "% initial value"}, {"measurement": "Relative phosphotyrosyl content after incubation at 25° C", "setting": "[12]; 34 kD polypeptide, 2h", "value": "40 ± 3", "unit": "% initial value"}, {"measurement": "Relative phosphotyrosyl content after incubation at 25° C", "setting": "[12]; 34 kD polypeptide, 19h", "value": "16 + 2 % initial value"}, {"measurement": "Relative phosphotyrosyl content after incubation at 25° C", "setting": "[12]; 85 kD polypeptide, 2h", "value": "69 ± 2", "unit": "% initial value"}, {"measurement": "Relative phosphotyrosyl content after incubation at 25° C", "setting": "[12]; 85 kD polypeptide, 19h", "value": "34 ± 2", "unit": "% initial value"}, {"measurement": "Relative phosphotyrosyl content after incubation at 25° C", "setting": "[12]; 102 kD polypeptide, 2h", "value": "60 ± 5", "unit": "% initial value"}, {"measurement": "Relative phosphotyrosyl content after incubation at 25° C", "setting": "[12]; 102 kD polypeptide, 19h", "value": "36 ± 3", "unit": "% initial value"}, {"measurement": "Relative phosphotyrosyl content after incubation at 25° C", "setting": "[12]; 228.5 kD polypeptide, 2h", "value": "65 ± 2", "unit": "% initial value"}, {"measurement": "Relative phosphotyrosyl content after incubation at 25° C", "setting": "[12]; 228.5 kD polypeptide, 19h", "value": "28 ± 3", "unit": "% initial value"}, {"measurement": "o-phospho-L-tyrosine (P-Tyr) hydrolyzing specific activity", "setting": "potato phosphatase [13]; final purified preparation", "value": "1917 μmol Pi produced min^-1 mg^-1 of protein"}, {"measurement": "PEP-hydrolyzing specific activity", "setting": "potato phosphatase [13]; final purified preparation, substrate PEP", "value": 618, "unit": "units/mg"}, {"measurement": "p-nitrophenyl phosphate-hydrolyzing specific activity", "setting": "potato phosphatase [13]; purified PTAP sample used for microprobe analysis", "value": 618, "unit": "units/mg"}, {"measurement": "pH of maximum activity", "setting": "potato phosphatase [14]", "value": "~5.8"}, {"measurement": "pH of half-maximal activity", "setting": "potato phosphatase [14]; listed as potato phosphatase", "value": "4.9 and 6.7"}]}]}
